Patent publication US20230293705A1, “NANOPARTICLES INCLUDING A GLATIRAMOID USEFUL IN POLYNUCLEOTIDE DELIVERY” (King AbdulAziz University, priority 2017, published 2023)
No end group written: not given here.

B1: K100: (KKKKKKKKKK)n=10 (SEQ ID NO: 2), Mw = 16,000 Da, high molecular weight polylysine (peptide)
chain: KKKKKKKKKKKKKKKKKKKKKKKKKKKKKKKKKKKKKKKKKKKKKKKKKKKKKKKKKKKKKKKKKKKKKKKKKKKKKKKKKKKKKKKKKKKKKKKKKKKK
modifications: ten repeats of SEQ ID NO:2 motif

Columns and labels:
pDNA (pGL3) = assay: Agarose gel electrophoresis of polycation-pDNA nanoparticles; assay type: physicochemical; settings: for immobilization of pDNA in agarose gel: N/P ratio of 0.5
Protocol: Nanoparticle Formation. GA-pDNA nanoparticles, K100-pDNA nanoparticles, and K9-pDNA nanoparticles were prepared by adding 15 µL of the GA, K100, or K9 solutions at polymer nitrogen to pDNA phosphate ([…]) of pDNA (TAE Buffer (1x) was used as a solution for DNA storage), followed by repeated pipetting for 20-25 seconds. At that point, 15 µL of CaCl2 (0 or 38 mmol/L) was added to determine the effect of calcium. After formulating, samples were stored at 4° C. for ~20 minutes. PEI-pDNA nanoparticles were prepared by adding 15 µL of PEI solution (N/P ratio of 10) to 10 µL (0.1 µg/µL) of pDNA followed by pipetting for 20-25 seconds. After preparing PEI-pDNA nanoparticles, they were stored at 4° C. for ~20 minutes. All nanoparticles in this study were prepared immediately before each experiment.
Agarose Gel Electrophoresis. GA-pDNA nanoparticles, K100-pDNA nanoparticles, and K9-pDNA nanoparticles were prepared as defined above and subsequently, 4 µL of Tris-acetate-EDTA (TAE) buffer was added. Then, 4 µL of SYBR Green 1 was mixed with the nanoparticles. Afterward, the mixture was stored at 4° C. for 20-25 minutes. Then, 7 µL of 6X DNA loading dye (Takara Bio Inc., Japan) was added. A one kb DNA ladder (Promega, Madison, WI) was used. The mixture solutions were loaded onto a 1% agarose gel, and electrophoresed for 30 minutes at 110 V.

A549 cells = assay: MTS cytotoxicity assay in A549 cells; assay type: cell-based, human
Protocol: (§1) Cytotoxicity Assay. Cytotoxicity of GA, K100, and K9, PEI, and CaCl2 was determined using a Cell Titer 96® AQueous Non-Radioactive Cell Proliferation Assay (MTS) obtained from Promega (Madison, Wisconsin). A549 and HeLa cells were cultured in a 96-well plate as described previously. Cells were treated with the samples for ~24 hours. Then, the media were replaced with a mixture of 100 µL of fresh serum medium and 20 µL of MTS. The plate was incubated for 3-4 hours in the incubator. To determine cell viability, the absorbance of each well was measured by a microplate reader (SpectraMax; Molecular Devices Crope, CA) at 490 nm and normalized to untreated control cells.

HeLa cells = assay: MTS cytotoxicity assay in HeLa cells; assay type: cell-based, human; settings: ~24 hours treatment
Protocol: as §1

Molecule | immobilization of pDNA in agarose gel (pDNA (pGL3)) | cytotoxicity (A549 cells; up to 1 mg/mL, cell line not stated at the place (A549 and HeLa tested)) | complexation of pDNA in agarose gel (pDNA (pGL3); N/P ratio of 1) | cytotoxicity (MTS) (A549 cells; A549 cells, ~24 hours treatment) | cytotoxicity (MTS) (HeLa cells)
Glatiramer Acetate [GA] | able to immobilize pDNA completely | negligible cytotoxicity |  |  | 
K9: KKKKKKKKK (SEQ ID NO: 1), C-terminal amide, Mw = 1170.65 Da (KKKKKKKKK-NH2) | did not |  | did not completely complex pDNA |  | 
B1 | able to immobilize pDNA completely |  |  | highly cytotoxic at low concentrations | highly cytotoxic at low concentrations
